Measurements taken from patent US12339286B2, “Metal-reducing enzymatic tag for optical and electron microscopy” (Colorado State University Research Foundation, priority 2018, dated 2025).
Values joined by “and” are separate entries in the source; they are usually repeats but may differ in a detail not shown here. Equal entries are not always repeated. Ends that are not written are not given here.

T1: Pseudomonas moraviensis stanleyea GRLMR-SeBP (glutathione reductase-like metalloid reductase, GRLMR, with the selenium nanoparticle binding peptide SeBP/SeBP1, (Pseudomonas moraviensis, UniProt A0A2A2PF31, INS452LTPHKHHKHLHA))
T1 sequence (A0A2A2PF31 1-452 INS452LTPHKHHKHLHA): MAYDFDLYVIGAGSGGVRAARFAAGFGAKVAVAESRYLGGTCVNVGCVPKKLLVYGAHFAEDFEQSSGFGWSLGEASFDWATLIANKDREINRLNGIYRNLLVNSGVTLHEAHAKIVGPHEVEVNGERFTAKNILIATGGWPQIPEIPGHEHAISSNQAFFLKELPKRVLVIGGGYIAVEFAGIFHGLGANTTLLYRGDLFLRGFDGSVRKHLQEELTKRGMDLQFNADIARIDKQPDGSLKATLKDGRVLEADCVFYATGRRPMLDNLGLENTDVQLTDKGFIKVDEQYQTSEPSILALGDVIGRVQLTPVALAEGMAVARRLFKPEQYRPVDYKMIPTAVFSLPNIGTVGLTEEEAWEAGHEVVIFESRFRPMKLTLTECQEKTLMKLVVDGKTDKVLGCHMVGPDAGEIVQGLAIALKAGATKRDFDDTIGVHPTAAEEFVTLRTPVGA

B1: SeBP2 (…) displayed on M13 phage (peptide, not shown: large carriers)
peptide: GPHHMHHHRTHH-{M13 pIII}
modifications: also: displayed on M13 phage pIII, linker not given here
B2: SeBP3 (…) displayed on M13 phage (peptide, not shown: large carriers)
peptide: WPRHHWHTNYMR-{M13 pIII}
modifications: also: displayed on M13 phage pIII, linker not given here
B3: SeBP4 (…) displayed on M13 phage (peptide, not shown: large carriers)
peptide: GWHSPHAHWRVK-{M13 pIII}
modifications: also: displayed on M13 phage pIII, linker not given here
B4: SeBP5 (…) displayed on M13 phage (peptide, not shown: large carriers)
peptide: THYNPLRINPIT-{M13 pIII}
modifications: also: displayed on M13 phage pIII, linker not given here

How the values were obtained:
[1] = target: Pseudomonas moraviensis stanleyea GRLMR (glutathione reductase-like metalloid reductase), without SeBP (Pseudomonas moraviensis, UniProt A0A2A2PF31); test: KM and kcat study: NADPH consumption at 340 nm, V0 vs substrate concentration; type: biochemical; conditions: substrate HNaSeO3; PBS, pH 7.4; 13 μg of enzyme; 200 μM NADPH; 0.05 mM-2 mM substrate
Text: (§1) Because of the dramatic difference in SeBP size, morphology and aggregation state that depends on SeBP concatenation to GRLMR, whether this concatenation also alters the kinetic properties of the enzyme was investigated. To explore this possibility, NADPH concentrations were monitored spectroscopically during GRLMR enzymatic reactions to establish fundamental enzymatic kinetics in the presence and absence of the peptide. FIG. 4 depicts the plots of V0s attained by the GRLMR with and without SeBP over a range of substrate concentrations.
(§2) Initial velocities (V0) of the GRLMR-SeBP were performed in various concentrations of HNaSeO3 or GSSG while monitoring 340 nm correlating to NADPH absorbance. The reactions were run in PBS, pH 7.4 and with 13 μg of enzyme with substrate SeO3^2− (1.5 μg of enzyme with substrate GSSG) and 200 μM of NADPH with 0.05 mM-2 mM of substrate. Enzymatic V0s were plotted against substrate concentration in OriginPro from which KM and kcat could then be calculated.

[2] = target: T1, Pseudomonas moraviensis stanleyea GRLMR-SeBP (glutathione reductase-like metalloid reductase, GRLMR, with the selenium nanoparticle binding peptide SeBP/SeBP1,; test: as above; type: biochemical; conditions: substrate HNaSeO3; PBS, pH 7.4; 13 μg of enzyme; 200 μM NADPH; 0.05 mM-2 mM substrate
Text: as §1, §2

[3] = target: glutathione reductase-like metalloid reductase (GRLMR) (Pseudomonas moraviensis stanleyae); test: negative binding assay: phage (input 10^10 pfu) on wells coated with unreacted GRLMR, acid-eluted phage titered on E. coli

Molecule	eluted phage titer (pfu) [3]	further results
O=[Se]([O-])O.[Na+] [HNaSeO3]	–	Km [1]: 1920 ± 1280 µM; kcat [1]: 0.38038 ± 0.1473 s⁻¹ and 0.38038 s⁻¹; Km [2]: 217 ± 57 µM; kcat [2]: 0.67193 ± 0.04143 s⁻¹ and 0.67193 s⁻¹
Wild Type M13 phage (no inserted sequence) (from UniProt P69168 19-424)	150000 pfu	–
B1	2.1e+09 pfu	–
B2	3.9e+08 pfu	–
B3	330000 pfu	–
B4	680000 pfu	–
